Assay results published in publication PMC9953004, “Scandium-44 Radiolabeled Peptide and Peptidomimetic Conjugates Targeting Neuropilin-1 Co-Receptor as Potential Tools for Cancer Diagnosis and Anti-Angiogenic Therapy” (Biomedicines, 2023).
pIC50: −log10 of the molar value.

Biological target: Recombinant human NRP-1 (neuropilin-1 co-receptor) (human) (UniProt O14786)
Test: ELISA; competitive; recombinant human NRP-1 coated on a 96-well plate (200 ng/well, overnight, 4 °C), blocked with 0.5% BSA in PBS; 50 µL compound in PBS (100, 50, 25, 12.5, 6.75 µM) plus 50 µL (400 ng/mL) human (bt)-VEGF-A165 in PBS with 4 µg/mL heparin; 2 h at room temperature; streptavidin-HRP, chemiluminescence; IC50 by nonlinear regression, mean ± SD of three experiments

Recombinant human NRP-1 (neuropilin-1 co-receptor) (human), sequence (O14786 22-856): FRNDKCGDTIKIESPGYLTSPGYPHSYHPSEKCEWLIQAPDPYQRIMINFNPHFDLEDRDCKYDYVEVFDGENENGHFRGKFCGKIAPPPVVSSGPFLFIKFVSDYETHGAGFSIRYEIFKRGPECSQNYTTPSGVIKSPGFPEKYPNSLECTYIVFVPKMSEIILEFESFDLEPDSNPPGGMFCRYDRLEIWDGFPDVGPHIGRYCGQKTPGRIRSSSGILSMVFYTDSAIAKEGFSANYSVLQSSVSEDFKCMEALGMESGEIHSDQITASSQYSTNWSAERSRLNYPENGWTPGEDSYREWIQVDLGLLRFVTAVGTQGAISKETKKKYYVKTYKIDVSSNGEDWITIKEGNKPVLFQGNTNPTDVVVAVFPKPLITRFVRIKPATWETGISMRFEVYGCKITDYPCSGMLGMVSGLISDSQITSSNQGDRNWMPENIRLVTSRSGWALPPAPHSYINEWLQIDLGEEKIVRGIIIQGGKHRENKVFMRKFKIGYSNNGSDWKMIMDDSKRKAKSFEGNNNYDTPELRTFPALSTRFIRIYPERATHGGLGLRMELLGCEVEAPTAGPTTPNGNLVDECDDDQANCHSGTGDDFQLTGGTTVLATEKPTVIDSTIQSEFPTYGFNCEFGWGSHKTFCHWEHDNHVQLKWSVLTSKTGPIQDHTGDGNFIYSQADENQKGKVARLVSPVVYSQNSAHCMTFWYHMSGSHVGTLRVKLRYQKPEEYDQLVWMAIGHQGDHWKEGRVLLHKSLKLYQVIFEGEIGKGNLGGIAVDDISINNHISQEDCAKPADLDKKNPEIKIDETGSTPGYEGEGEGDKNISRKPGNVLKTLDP

Substance	pIC50
^DR7A-^DLys(DOTA-Ga) (peptide)	< 4.00
^DR7A-^DLys(DOTA-Sc) (peptide)	< 4.00
